This experiment deals with T1, 670-689 VP3 peptide (rhesus rotavirus RRV strain).
T1 construct: source: synthetic peptide (Gencript)
Briefly: BLI. The conditions noted are these: both partners purified.

B1: PFDN3 protein (His tag removed) (natural protein)
chain: MAAVKDSCGKGEMATGNGRRLHLGIPEAVFVEDVDSFMKQPGNETADTVLKKLDEQYQKYKFMELNLAQKKRRLKGQIPEIKQTLEILKYMQKKKESTNSMETRFLLADNLYCKASVPPTDKVCLWLGANVMLEYDIDEAQALLEKNLSTATKNLDSLEEDLDFLRDQFTTTEVNMARVYNWDVKRRNKDDSTKNKA
notes: also called non-Tagged PFDN3; human PFDN3; source: bought: Abcam (ab139201), His tag cleaved with thrombin
Turning to B1, the binding result is on record as “binds”.

The values above are taken from paper PMC12397275 (Nature Communications, 2025).
